Results as given in patent US20200239579A1 (Genmab, published 2020).

B1: IgG1-547-FEAR (antibody, V domains shown)
VH: EVQLLEPGGGLVQPGGSLRLSCEASGSTFSTYAMSWVRQAPGKGLEWVSGFSGSGGFTFYADSVRGRFTISRDSSKNTLFLQMSSLRAEDTAVYYCAIPARGYNYGSFQHWGQGTLVTVSS
VL: SYVLTQPPSVSVAPGQTARITCGGNNIGSKSVHWYQQKPGQAPVLVVYDDNDRPSGLPERFSGSNSGNTATLTISRVEAGDEADYYCQVWDSSSDHVVFGGGTKLTVLG
B2: IgG1-511-LC33S-FEAR (antibody, V domains shown)
VH: QVQLVQSGSELKKPGASVMVSCKASGYTFTSYVMNWVRQAPGQGLEWMGWINSYTGNPTSAQGFTGRFVFSFDTSVNTAYLQISSLKAEDTAVYYCARGYCTSTSCYLDYWGQGTLVTVSS
VL: SYELTQPPSVSVSPGHTARITCSGDALPKKYASWFQQKSGQAPVLVIYEDSKRPSGIPERFSGSTSGTMATLTISGAQVEDETDYYCYSADTSGTHRVFGGGTKLTVLG

Assays:
[1] = target: human PD-L1 (full length, on cells) (human, UniProt Q9NZQ7 19-290); assay: cell-based or functional assay
Sequence of human PD-L1 (full length, on cells) (Q9NZQ7 19-290 limits assumed): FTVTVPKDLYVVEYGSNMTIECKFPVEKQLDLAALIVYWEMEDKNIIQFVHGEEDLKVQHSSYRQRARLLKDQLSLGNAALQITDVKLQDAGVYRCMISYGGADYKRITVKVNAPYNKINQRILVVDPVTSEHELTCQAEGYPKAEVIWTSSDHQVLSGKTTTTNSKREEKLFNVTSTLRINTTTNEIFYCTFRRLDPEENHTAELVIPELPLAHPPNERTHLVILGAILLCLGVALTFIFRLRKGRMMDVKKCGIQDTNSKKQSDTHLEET

[2] = target: T1, cynomolgus monkey PD-L1 (full length, on CHO cells) (cynomolgus monkey (Macaca fascicularis), UniProt G7PSE7 19-290); assay: flow cytometry on CHO cells transfected with cynomolgus PD-L1, PE anti-human IgG secondary, MFI (PE)
T1 construct: whole, on cells; also called PDL1 Mf; cynomolgus PD-L1
T1 sequence (G7PSE7 entry or part of it): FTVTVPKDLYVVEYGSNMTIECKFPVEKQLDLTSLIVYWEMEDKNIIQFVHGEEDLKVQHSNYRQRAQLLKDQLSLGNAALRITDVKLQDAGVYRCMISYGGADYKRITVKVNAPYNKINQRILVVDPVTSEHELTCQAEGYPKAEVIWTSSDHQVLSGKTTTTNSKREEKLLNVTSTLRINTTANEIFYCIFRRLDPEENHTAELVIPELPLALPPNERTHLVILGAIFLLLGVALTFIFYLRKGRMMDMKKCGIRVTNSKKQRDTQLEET
Method: Cells (3-5×10⁴ cells/well) were incubated in polystyrene 96-well round-bottom plates (Greiner bio-one, cat. no. 650101) with serial dilutions of antibodies (range 0.0001 to 10 μg/mL in 5-fold dilution steps) in 50 μL PBS/0.1% BSA/0.02% azide (staining buffer) at 4° C. for 30 min.
After washing twice in staining buffer, cells were incubated in 50 μL secondary antibody at 4° C. for 30 min. As a secondary antibody, R-Phycoerythrin (PE)-conjugated goat-anti-human IgG F(ab′)₂ (Cat. no. 109-116-098, Jackson ImmunoResearch Laboratories, Inc., West Grove, Pa.) diluted 1:500 in staining buffer, was used for all experiments. Next, cells were washed twice in staining buffer, re-suspended in 20 μL staining buffer and analyzed on an iQue screener (Intellicyt Corporation, USA). Binding curves were analyzed using non-linear regression (sigmoidal dose-response with variable slope) using GraphPad Prism V75.04 software (GraphPad Software, San Diego, Calif., USA).
Binding to CHO cells expressing cynomolgus PD-L1 was determined by flow cytometry using a method as described above.

[3] = target: T2, PDLoneECDHisCtag (human, UniProt Q9NZQ7 19-238); assay: BLI cross-block, second antibody on PDLoneECDHisCtag held by immobilised 476-N101Q-LC33S; bold = blocking
T2 construct: Expressed in HEK-293F cells; theoretical molecular weight 29 kDa; also called recombinant human PD-L1 ECD; human PD-L1 (BLI); not shown: C-terminal His-tag; C-tag
T2 sequence (Q9NZQ7 19-238, form in doubt): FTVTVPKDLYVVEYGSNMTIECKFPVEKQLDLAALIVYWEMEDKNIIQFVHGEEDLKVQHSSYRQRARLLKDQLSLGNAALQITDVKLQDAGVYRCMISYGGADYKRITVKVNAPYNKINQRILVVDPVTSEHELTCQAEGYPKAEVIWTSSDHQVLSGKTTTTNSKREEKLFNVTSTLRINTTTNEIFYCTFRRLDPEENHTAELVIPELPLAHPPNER
Method: Antibody cross-block testing was performed using biolayer interferometry (BLI) on an Octet HTX instrument (ForteBio). Antibodies (20 μg/ml in 10 mM sodium acetate buffer pH 6.0 (ForteBio)) were immobilized on Amine-Reactive 2nd Generation (AR2G) biosensors (ForteBio) according to the instructions of the manufacturer. After a baseline (50 s) in Sample Diluent (ForteBio), biosensors containing immobilized antibodies were loaded for 500 s with PDLoneECDHisCtag (100 nM or 2.7 μg/ml), after which the association response of a second antibody (10 μg/ml) was followed for 500 s. Biosensors were regenerated by using 3 times 5 s alternating exposures to 10 mM glycine pH 2.5 and Sample Diluent. The experiment was repeated with a new set of second antibodies starting from the baseline step. Each biosensor was used 6 times. The experiment was performed at 30° C. using a shaker speed of 1000 rpm. Data was analyzed using Data Analysis Software v9.0.0.12 (ForteBio). The Y-axis was aligned to the association step and Savitzky-Golay filtering was applied. The average buffer response was subtracted from the association response of the second antibody in order to correct for the dissociation of PDLoneECDHisCtag from the immobilized antibody. The corrected association responses were plotted in a matrix format.

Row | Binder | EC50 (read off the curve) [1] [µg/mL] | EC50 (read off the curve) [2] [µg/mL] | association response of the second antibody [3] [nm]
1 | B1 | ~0.02 | ~0.05 | 
2 | B2 |  |  | 0
